According to the supplement of paper PMC10567573:

B1: KCNK9 (parent)
chain: CFITLTTIGFGDYVALQTKGALQK

Variants of: B1
Assay: protein stability index of a GFP-peptide fusion (GPS, HEK-293T) (PSI 1-6); higher = more stable
Conditions: c terminus: a fixed tail appended
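Note: lentivirally expressed fusions sorted by FACS into six bins by GFP to DsRed ratio, PSI derived from sequencing read proportions per bin multiplied by bin number.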

Variant	protein stability index
CFITLTTIGFGTYVALQTKGALQK	2.49
CFITLTTIGFGHYVALQTKGALQK	3.68
CFITLTTIGFGAYVALQTKGALQK	3.21
CFITLTTIGFGPYVALQTKGALQK	2.67
CFITLTTIGFGCYVALQTKGALQK	3.65
CFITLTTIGFGEYVALQTKGALQK	2.69
CFITLTTIGFGYYVALQTKGALQK	3.4
CFITLTTIGFGVYVALQTKGALQK	2.96
CFITLTTIGFGFYVALQTKGALQK	2.49
CFITLTTIGFGGYVALQTKGALQK	3.42
CFITLTTIGFGKYVALQTKGALQK	2.82
CFITLTTIWFGDYVALQTKGALQK	2.9
CFITLTTIIFGDYVALQTKGALQK	2.7
CFITLTTIPFGDYVALQTKGALQK	1.99
CFITLTTILFGDYVALQTKGALQK	3.46
CFITLTTIAFGDYVALQTKGALQK	3.95
CFITLTTIYFGDYVALQTKGALQK	1.93
CFITLTTIKFGDYVALQTKGALQK	2.5
CFITLTTIMFGDYVALQTKGALQK	2.8
CFITLTTIHFGDYVALQTKGALQK	2.51
CFITLTTIDFGDYVALQTKGALQK	2.33
CFITLTTITFGDYVALQTKGALQK	2.21
CFITLTTIRFGDYVALQTKGALQK	1.36
CFITLTTIQFGDYVALQTKGALQK	2.81

Variant	protein stability index
CFITLTTIEFGDYVALQTKGALQK	1.58
CFITLTTIFFGDYVALQTKGALQK	3.77
CFITLTTISFGDYVALQTKGALQK	1.73
CFITLTTIVFGDYVALQTKGALQK	4.79
CFITLTTICFGDYVALQTKGALQK	2.83
CFITLTTINFGDYVALQTKGALQK	2.02
CFITLTTIGFGDYVALFTKGALQK	3.02
CFITLTTIGFGDYVALITKGALQK	2.27
CFITLTTIGFGDYVALDTKGALQK	2.17
CFITLTTIGFGDYVALGTKGALQK	2.38
CFITLTTIGFGDYVALKTKGALQK	2.82
CFITLTTIGFGDYVALCTKGALQK	3.88
CFITLTTIGFGDYVALHTKGALQK	3.57
CFITLTTIGFGDYVALLTKGALQK	2.23
CFITLTTIGFGDYVALETKGALQK	2.76
CFITLTTIGFGDYVALMTKGALQK	2.23
CFITLTTIGFGDSVALQTKGALQK	2.51
CFITLTTIGFGDDVALQTKGALQK	2.1
CFITLTTIGFGDLVALQTKGALQK	2.38
CFITLTTIGFGDPVALQTKGALQK	2.92
CFITLTTIGFGDCVALQTKGALQK	3.93
CFITLTTIGFGDNVALQTKGALQK	2.04
CFITLTTIGFGDTVALQTKGALQK	3.55
CFITLTTIGFGDGVALQTKGALQK	2.42

Variant	protein stability index
CFITLTTIGFGDAVALQTKGALQK	3.35
CFITLTTIGFGDIVALQTKGALQK	2.31
CFITLTTIGFGDKVALQTKGALQK	2.24
CFITLTTIGFGDWVALQTKGALQK	2.93
CFITLTTIGFGDHVALQTKGALQK	2.07
CFITLTTIGFGDQVALQTKGALQK	2.05
CFITLTTIGFGDVVALQTKGALQK	2.57
CFITLTTIGFGDRVALQTKGALQK	2.32
CFITLTTIGFGDEVALQTKGALQK	2.12
CFITLTTIGFGDMVALQTKGALQK	3.32
CFITLTTAGFGDYVALQTKGALQK	2.08
CFITLTTLGFGDYVALQTKGALQK	3.63
CFITLTTYGFGDYVALQTKGALQK	1.78
CFITLTTEGFGDYVALQTKGALQK	2.39
CFITLTTSGFGDYVALQTKGALQK	2.95
CFITLTTNGFGDYVALQTKGALQK	2.27
CFITLTTGGFGDYVALQTKGALQK	2.78
CFITLTTPGFGDYVALQTKGALQK	2.39
CFITLTTRGFGDYVALQTKGALQK	1.67
CFITLTTQGFGDYVALQTKGALQK	3.37
CFITLTTHGFGDYVALQTKGALQK	3.24
CFITLTTMGFGDYVALQTKGALQK	2.03
CFITLTTFGFGDYVALQTKGALQK	2.8
CFITLTTKGFGDYVALQTKGALQK	1.53

Variant	protein stability index
CFITLTTVGFGDYVALQTKGALQK	3.42
CFITLTTDGFGDYVALQTKGALQK	2.14
CFITLTTTGFGDYVALQTKGALQK	3.29
CFITLTTCGFGDYVALQTKGALQK	2.37
CFITLTTIGFSDYVALQTKGALQK	2.18
CFITLTTIGFADYVALQTKGALQK	3.32
CFITLTTIGFLDYVALQTKGALQK	3.22
CFITLTTIGFYDYVALQTKGALQK	3.95
CFITLTTIGFFDYVALQTKGALQK	3.25
CFITLTTIGFEDYVALQTKGALQK	3.16
CFITLTTIGFVDYVALQTKGALQK	2.31
CFITLTTIGFHDYVALQTKGALQK	3.08
CFITLTTIGFIDYVALQTKGALQK	2.91
CFITLTTIGFQDYVALQTKGALQK	2.7
CFITLTTIGFNDYVALQTKGALQK	2.99
CFITLTTIGFTDYVALQTKGALQK	1.62
CFITLTTIGFMDYVALQTKGALQK	1.85
CFITLTTIGFCDYVALQTKGALQK	3.41
CFITLTTIGFKDYVALQTKGALQK	2.73
CFITLTTIGFDDYVALQTKGALQK	3.33
CFITLTTIGFPDYVALQTKGALQK	1.99
CFITLTTIGFRDYVALQTKGALQK	3.04
